Experimental data taken from patent US20260248877A1 (Universite de Rennes, priority 2021, published 2026).
Entries after “also recorded” stand apart in the source; their conditions may differ.

How the values were obtained:
[1] = Determination of the aggregative character of the peptides by sedimentation; assay type: physicochemical; conditions: sedimentation, Garnier-Delamarche representation
Method: (§1) After thawing, a pre-dilution in milli Q H2O filtered through 0.2 μm was carried out in order to obtain a solution at a concentration close to the working concentration, greater than 1.25 times. This stock solution was left to incubate for 1 hour in a water bath at 25° C., and was then assayed spectrophotometrically and adjusted to the final working concentration of 1.25 times. The polymerization was initiated by adding ¼ of the volume of 5× fibrillation buffer (50 mM MOPS, 750 mM NaCl, pH=7.2) for a final concentration of 1× fibrillation buffer (10 mM MOPS, 150 mM NaCl, PH=7.2). The samples were left to incubate for 1.5-2 hours at 25° C. in a water bath. The study of the polymerization by fluorimetry was carried out under the same conditions, except that the 5× polymerization buffer was supplemented with Thioflavin T (ThT) at 100 μM in order to be able to observe the fluorescence. • (a) Determination of the Aggregative Character of the Peptides. Once polymerized, the samples were ultracentrifuged at 100,000 g for 5 minutes at 25° C. (Beckman TL100, rotor TL-A100). The supernatants of each sample were then collected. An assay at 280 nm in triplicate of each supernatant was then carried out in the presence of 1% SDS. The concentration of the supernatant was determined using the Beer-Lambert law A=ε×1×C; ε (peptides)=1450 M^−1cm^−1. The concentration of sedimentable species in the pellet was then deduced by the difference: “total concentration of the sample—concentration of free peptide present in the supernatant”. • (b) Determination of the Amyloidogenic Character of the Peptides. Once the peptides have polymerized as previously indicated, 40 μL of peptides polymerized at a concentration of 400 μM and 800 μM were diluted in 360 μL of Thioflavin T (10 μM ThT, 1×MOPS) in a thermostatically controlled tank of 0.2×1 cm, to a final volume of 400 μL. The fluorescence of the sample was then measured immediately after dilution by recording a fluorescence spectrum (470 nm to 600 nm) at an excitation wavelength of 450 nm (Perkin Elmer LS 55, PM 750, slit10).
(§2) After prediction of their amyloidogenic character by bioinformatics, all the peptides were studied using biochemical techniques, namely sedimentation and fluorescence/ThT. The biochemical experiments were carried out at two peptide concentrations: 400 μM and 800 μM. Only the results obtained at 800 μM are presented. At this concentration, in sedimentation, the amount of sedimentable peptide after polymerization was measured and expressed as a percentage as a function of the total concentration. This value corresponds to the aggregative character of the peptides. On the other hand, the fluorescence test was used to determine their amyloidogenic character, the fluorescence value given corresponds to a normalization with respect to 1p, considering that its fluorescence is 100% (Table 4).

[2] = Determination of the amyloidogenic character of the peptides by Thioflavin T fluorescence; assay type: physicochemical; conditions: ThT fluorescence, Garnier-Delamarche representation
Method: as §1, §2

[3] = target: T1, PHF6 peptide (VQIVYK, 1p) (Homo sapiens, UniProt P10636); test: Effects of the derived peptides on VQIVYK polymerization by spectrofluorimetry (ThT kinetics); assay type: biochemical
T1 construct: The polymerization of VQIVYK was initiated by adding ¼ of the volume of fibrillation buffer 5×

[4] = Polymerization kinetics of selected peptide alone (ThT spectrofluorimetry); assay type: physicochemical; conditions: 310 μM, ThT fluorescence
Method: After thawing, a pre-dilution of the peptides of interest in sterile water was carried out in order to obtain, for each peptide, a solution at a concentration close to the working concentration. The peptides were then left to incubate at 4° C. overnight. On the day of the experiment, the peptide solutions were sonicated for 10 minutes, left to stand for one hour at room temperature, sonicated again for 10 minutes and assayed spectrophotometrically at 280 nm (8=1450 M^−1cm^−1). The UV spectra were previously normalized to 0 at 300 nm. The solutions were prepared at concentrations of peptides ¼ above that desired in the end. The polymerization of VQIVYK was initiated by adding ¼ of the volume of fibrillation buffer 5× for a final concentration of fibrillation buffer 1× (10 mM MOPS, 150 mM NaCl, pH=7.2).
The analyses were carried out on a spectrofluorometer (LS 55 from Perkin Elmer) fitted with a 4-cell rack. Black quartz cells (0.2×1.0 cm) were used. […]
The results were first smoothed over 10 points with the “smooth” option of the KaleidaGraph software. […] Finally, the results of each kinetics were normalized relative to the fluorescence intensity of the 1p control after 100 minutes of polymerization considered to be 100%.

[5] = system: cells of the neuroblastoma line SH-SY5Y; test: Growth of SH-SY5Y neuroblastoma cells (images); assay type: cell-based; conditions: 100 μM, 24 hours, 1×DMEM medium, 8% serum
Method: The effects of three hexapeptides classified as “therapeutic” (1tp, 4tp, 6tp) and of two peptides classified as “amyloid” (7tp and 1p) on the growth of cells of the neuroblastoma line SH-SY5Y were studied after 24 hours of treatment in the presence of a hexapeptide at a concentration of 100 μM in 1×DMEM medium, 8% serum. The results obtained are presented on FIG. 10(A).

inhibitory effect over longer times ([3]; polymerization followed for 15 hours): the inhibitory effect persisted
Substance: YQIVVK (Ac-YQIVVK-NH2) [6tp]
aggregative character (in words) [1]: weakly aggregative
amyloidogenic character (in words) [2]: weakly amyloidogenic
category of polymerization kinetics of 1p in the presence of peptide ([3]; [1p]=155 μM, [selected peptide]=310 μM): slow compared to 1p alone and which have a lower fluorescence intensity
inhibitory effect on 1p (PHF6) polymerization (in words) ([3]; [1p]=155 μM, [selected peptide]=310 μM, thresholds 50% rate, 100% fluorescence intensity): clearly inhibited; also recorded: marked inhibitory effect; also recorded: with a strong inhibitory effect
polymerization of the peptide on its own [4]: do not polymerize on their own
effect on cell growth (number and appearance of cells) [5]: did not seem to have any effect
